Experimental findings from US20050181450A1, “Novel inositol 1,4,5-trisphosphate (IP3) receptor-binding protein and an IP3 indicator” (priority 2002, published 2005) are described below.

Experiment [1] addresses T1, GST-IIab (mouse IP3R1 amino acids 341-923) (Mus musculus, UniProt P11881).
T1 construct: made in house; host or cells: Escherichia coli
The experiment can be described thus: GST pulldown with GST-IIab. The format is binding. The note with it: IRBIT in high salt extract. From the text:
The cDNAs encoding the full-length and N-terminal region (amino acids 1-104) of IRBIT were subcloned into the Escherichia coli hexahistidine (His) fusion vector pET-23a(+) (Novagen) to generate IRBIT-His and IRBIT(1-104)-His expression vectors, respectively. The same cDNAs were subcloned into the GST fusion vector pGEX-4T-1 (Amersham Pharmacia Biotech) to generate GST-IRBIT and GST-IRBIT(1-104) expression vectors, respectively. The cDNA fragments encoding the amino acids 1-225, 1-343, 341-923, 600-1248, 916-1581 and 1553-1943 of the amino acid sequence (SEQ ID NO: 7) of mouse IP3R1 were inserted into pGEX-KG to generate GST-Ia, GST-Iab, GST-IIab, GST-IIbIIIa, GST-IIIab and GST-IV expression vectors, respectively. The amino acids 1593-2217 of mouse IP3R1 were inserted into pGEX-4T-1 to obtain GST-IV-Va expression vector. These fusion proteins were expressed in Escherichia coli. GST-EL was expressed in Sf9 cells as described above. […]
For the determination of the IRBIT binding region and the critical amino acid residue of IP3R1, the diluted high salt extract was subjected to pulldown assay as described above with 100 pmol of GST, GST-EL, GST-Ia, GST-Iab, GST-IbIIa, GST-IIab, GST-IIbIIIa, GST-IIIab, GST-IV, GST-IV-Va, K508A or R441Q, and analyzed by Western blotting with anti-IRBIT antibody.

Another experiment addresses T2, GST-EL (IP3R) (Mus musculus, UniProt P11881, N1264K).
T2 construct: construct a GST-IP3R1 (1-2217) vector (termed GST-EL); made in house; host or cells: GST-EL: Sf9 cells; His-IRBIT: Sf9 cells or E. coli
The experiment is described as follows: [3H]IP3 binding to GST-EL. The note with it: IRBIT treated with alkaline phosphatase. As for the experimental part:
(A) 0.2 μg of GST-EL was incubated with 0.1, 1, or 10 μg of purified His-tagged IRBIT expressed in Sf9 cells or E. coli in a solution containing 50 mM Tris-HCl (pH 8.0), 1 mM EDTA, and 1 mM 2-mercaptoethanol, for 30 min on ice. Then 8.7 nM [^3H]IP3 (PerkinElmer Life Sciences) was added to the samples and incubated for 10 min on ice (total volume was 50 μl). The samples were mixed with 2 μl of 50 mg/ml γ-globulin and 50 μl of 30% PEG6000, 50 mM Tris-HCl (pH 8.0), and incubated for 5 min on ice. Non-specific binding was measured in the presence of 10 μM cold IP3. After centrifugation at 20,000×g for 5 min, the precipitate was dissolved in SOLVABLE™ (Packard) and the radioactivity was measured with a liquid scintillation counter (Beckman Coulter). Results are shown as the mean±S.D. from three independent experiments. (B) Purified His-IRBIT expressed in Sf9 cells was incubated with alkaline phosphatase for 30 min at 37° C. prior to the IP3 binding assay described as in (A). (C and D) Scatchard analysis. 0.1 μg of GST-EL was incubated with or without 1 μg of purified His-tagged IRBIT expressed in Sf9 cells as described in (A). Then 2.17 nM [^3H]IP3 and 2-500 nM cold IP3 were added to the samples and incubated for 10 min on ice (total volume was 100 μl). Non-specific binding was measured in the presence of 10 μM cold IP3. [^3H]IP3 binding to GST-EL was measured as described in (A).
The effect of IRBIT on binding of IP3 to IP3R was examined. GST-EL (0.2 μg) was incubated with 0.1, 1, or 10 μg of purified His-tagged IRBIT expressed in Sf9 cells or E. coli in a solution containing 50 mM Tris-HCl (pH 8.0), 1 mM EDTA, and 1 mM 2-mercaptoethanol, for 30 min on ice. Then 8.7 nM [^3H]IP3 (PerkinElmer Life Sciences) was added to the samples and incubated for 10 min on ice (total volume was 50 μl). The samples were mixed with 2 μl of 50 mg/ml γ-globulin and 50 μl of 30% PEG6000, 50 mM Tris-HCl (pH 8.0), and incubated for 5 min on ice. Non-specific binding was measured in the presence of 10 μM cold IP3. After centrifugation at 20,000×g for 5 min, the precipitate was dissolved in SOLVABLE™ (Packard) and the radioactivity was measured with a liquid scintillation counter (Beckman Coulter). […] 0.1 μg of GST-EL was incubated with or without 1 μg of purified His-tagged IRBIT expressed in Sf9 cells as described in (A). Then 2.17 nM [^3H]IP3 and 2-500 nM cold IP3 were added to the samples and incubated for 10 min on ice (total volume was 100 μl). Non-specific binding was measured in the presence of 10 μM cold IP3. [^3H]IP3 binding to GST-EL was measured as described in (A). […] Bmax was not changed.

T2 sequence (P11881 1-2217 N1264K): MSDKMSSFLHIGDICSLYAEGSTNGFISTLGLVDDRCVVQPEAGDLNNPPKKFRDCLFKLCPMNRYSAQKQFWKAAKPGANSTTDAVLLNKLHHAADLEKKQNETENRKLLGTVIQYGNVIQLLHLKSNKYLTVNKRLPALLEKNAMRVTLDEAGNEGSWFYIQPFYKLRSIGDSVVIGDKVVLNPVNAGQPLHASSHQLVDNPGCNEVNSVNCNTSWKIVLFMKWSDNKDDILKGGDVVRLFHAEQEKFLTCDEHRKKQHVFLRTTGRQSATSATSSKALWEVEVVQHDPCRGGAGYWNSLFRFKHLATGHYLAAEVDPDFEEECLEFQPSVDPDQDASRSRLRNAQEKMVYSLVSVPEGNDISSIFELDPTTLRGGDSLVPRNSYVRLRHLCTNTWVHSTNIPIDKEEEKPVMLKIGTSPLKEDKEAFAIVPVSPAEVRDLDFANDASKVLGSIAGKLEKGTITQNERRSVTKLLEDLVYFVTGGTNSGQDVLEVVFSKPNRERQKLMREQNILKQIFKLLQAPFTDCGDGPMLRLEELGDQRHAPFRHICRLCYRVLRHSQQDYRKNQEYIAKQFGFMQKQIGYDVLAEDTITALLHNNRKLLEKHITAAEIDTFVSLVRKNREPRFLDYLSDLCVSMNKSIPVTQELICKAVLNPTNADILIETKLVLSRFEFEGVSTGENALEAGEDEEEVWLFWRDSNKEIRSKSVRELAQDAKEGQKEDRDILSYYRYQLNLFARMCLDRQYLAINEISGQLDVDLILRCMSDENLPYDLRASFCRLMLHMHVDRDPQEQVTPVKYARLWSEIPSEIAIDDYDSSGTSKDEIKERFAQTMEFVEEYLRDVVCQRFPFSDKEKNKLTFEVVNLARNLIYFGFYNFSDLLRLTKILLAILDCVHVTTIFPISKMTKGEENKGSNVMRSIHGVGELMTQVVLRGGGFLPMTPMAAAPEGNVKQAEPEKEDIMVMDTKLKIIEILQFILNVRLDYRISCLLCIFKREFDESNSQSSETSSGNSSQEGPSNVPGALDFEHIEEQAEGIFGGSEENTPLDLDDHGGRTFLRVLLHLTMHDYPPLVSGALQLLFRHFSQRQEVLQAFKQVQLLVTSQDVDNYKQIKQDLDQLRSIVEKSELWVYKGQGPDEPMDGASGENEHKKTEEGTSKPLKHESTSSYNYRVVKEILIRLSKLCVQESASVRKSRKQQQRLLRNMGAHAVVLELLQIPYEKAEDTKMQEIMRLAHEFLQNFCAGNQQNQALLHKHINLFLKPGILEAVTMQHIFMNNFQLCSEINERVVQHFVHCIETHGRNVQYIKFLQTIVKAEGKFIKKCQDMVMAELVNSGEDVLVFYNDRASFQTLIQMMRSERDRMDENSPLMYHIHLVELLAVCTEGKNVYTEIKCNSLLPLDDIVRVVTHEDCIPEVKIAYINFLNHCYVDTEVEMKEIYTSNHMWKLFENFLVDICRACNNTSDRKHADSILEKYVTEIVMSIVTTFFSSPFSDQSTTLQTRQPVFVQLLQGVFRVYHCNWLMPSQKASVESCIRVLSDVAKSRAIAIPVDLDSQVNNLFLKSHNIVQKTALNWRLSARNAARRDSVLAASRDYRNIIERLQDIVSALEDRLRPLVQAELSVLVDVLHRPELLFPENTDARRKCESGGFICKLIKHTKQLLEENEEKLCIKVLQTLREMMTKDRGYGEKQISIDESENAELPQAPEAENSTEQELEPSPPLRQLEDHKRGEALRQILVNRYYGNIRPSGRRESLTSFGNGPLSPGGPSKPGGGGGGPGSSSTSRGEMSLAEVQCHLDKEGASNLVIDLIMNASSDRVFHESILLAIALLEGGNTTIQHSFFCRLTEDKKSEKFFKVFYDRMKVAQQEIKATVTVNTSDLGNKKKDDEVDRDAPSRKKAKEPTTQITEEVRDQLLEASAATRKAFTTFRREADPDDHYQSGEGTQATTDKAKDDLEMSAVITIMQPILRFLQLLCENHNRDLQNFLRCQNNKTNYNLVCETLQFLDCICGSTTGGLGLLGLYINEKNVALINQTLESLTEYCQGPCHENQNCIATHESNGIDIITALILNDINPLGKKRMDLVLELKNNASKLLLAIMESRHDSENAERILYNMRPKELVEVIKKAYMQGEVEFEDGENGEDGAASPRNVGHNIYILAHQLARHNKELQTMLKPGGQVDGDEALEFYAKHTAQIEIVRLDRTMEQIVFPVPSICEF
T1 sequence (P11881 341-923): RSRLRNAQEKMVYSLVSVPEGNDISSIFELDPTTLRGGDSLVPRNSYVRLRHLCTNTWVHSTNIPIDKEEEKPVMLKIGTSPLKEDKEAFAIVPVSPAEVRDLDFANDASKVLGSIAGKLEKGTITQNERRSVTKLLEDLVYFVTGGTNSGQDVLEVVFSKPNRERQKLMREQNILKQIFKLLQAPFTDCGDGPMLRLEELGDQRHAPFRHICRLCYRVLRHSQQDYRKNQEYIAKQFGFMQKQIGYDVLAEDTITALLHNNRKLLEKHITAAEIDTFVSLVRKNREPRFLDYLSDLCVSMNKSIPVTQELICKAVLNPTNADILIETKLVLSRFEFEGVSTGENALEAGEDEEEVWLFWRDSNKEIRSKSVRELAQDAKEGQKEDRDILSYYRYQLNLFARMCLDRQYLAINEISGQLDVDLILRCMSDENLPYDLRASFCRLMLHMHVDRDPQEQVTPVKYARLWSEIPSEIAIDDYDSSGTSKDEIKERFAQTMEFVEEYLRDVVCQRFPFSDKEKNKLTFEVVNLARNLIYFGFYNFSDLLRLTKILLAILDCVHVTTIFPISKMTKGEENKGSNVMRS

B1: IRBIT: novel IP3 receptor-binding protein of 530 amino acids, SEQ ID NO: 1 (protein, listed as Mus musculus)
chain: MSMPDAMPLPGVGEELKQAKEIEDAEKYSFMATVTKAPKKQIQFADDMQEFTKFPTKTGRRSLSRSISQSSTDSYSSAASYTDSSDDEVSPREKQQTNSKGSSNFCVKNIKQAEFGRREIEIAEQDMSALISLRKRAQGEKPLAGAKIVGCTHITAQTAVLIETLCALGAQCRWSACNIYSTQNEVAAALAEAGVAVFAWKGESEDDFWWCIDRCVNMDGWQANMILDDGGDLTHWVYKKYPNVFKKIRGIVEESVTGVHRLYQLSKAGKLCVPAMNVNDSVTKQKFDNLYCCRESILDGLKRTTDVMFGGKQVVVCGYGEVGKGCCAALKALGAIVYITEIDPICALQACMDGFRVVKLNEVIRQVDVVITCTGNKNVVTREHLDRMKNSCIVCNMGHSNTEIDVTSLRTPELTWERVRSQVDHVIWPDGKRVVLLAEGRLLNLSCSTVPTFVLSITATTQALALIELYNAPEGRYKQDVYLLPKKMDEYVASLHLPSFDAHLTELTDDQAKYLGLNKNGPFKPNYYRY
B1: the “interaction with GST-IIab” value in experiment [1] is recorded as “did not interact”. The “effect on IP3 binding of GST-EL after dephosphorylation” value in the experiment with GST-EL (IP3R) is “reduced effect”.
